The target in one series is T1, RISBZ1 (Oryza sativa, UniProt Q6ZLB0 SEQ:1-436).
T1 sequence: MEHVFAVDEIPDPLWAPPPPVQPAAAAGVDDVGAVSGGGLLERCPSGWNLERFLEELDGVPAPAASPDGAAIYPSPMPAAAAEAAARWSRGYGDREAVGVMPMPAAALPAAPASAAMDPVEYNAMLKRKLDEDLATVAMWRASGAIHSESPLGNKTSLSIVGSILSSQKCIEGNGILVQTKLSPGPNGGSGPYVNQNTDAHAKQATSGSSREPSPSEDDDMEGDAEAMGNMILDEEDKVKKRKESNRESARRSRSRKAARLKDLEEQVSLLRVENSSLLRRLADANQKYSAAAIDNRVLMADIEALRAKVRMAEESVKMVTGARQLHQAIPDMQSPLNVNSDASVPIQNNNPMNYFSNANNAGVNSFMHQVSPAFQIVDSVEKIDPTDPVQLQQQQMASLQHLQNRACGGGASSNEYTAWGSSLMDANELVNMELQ
Nature of the series: cell_activity; 1x21-bp reporter; 5x21-bp 127.1-fold. From the text:
(§1) In addition, reporter plasmids, into which the GUS gene, and one or three repeat(s) of the 12-bp GCN4 motif or one or five repeat(s) of the 21-bp GCN4 motif were inserted, were constructed. For negative control experiments, a reporter plasmid comprising four repeats of a mutant 12-bp GCN4 motif and the GUS reporter gene was used. The mutant 12-bp GCN4 motif has a mutation in the target sequence that is recognized by the RISBZ1 and O2. These plasmid constructs were introduced alone or in combination with other reporter or effector plasmid into rice protoplast cells prepared from its callus culture, and the GUS activity was assayed. When the reporter plasmid or effector plasmid was introduced alone into the protoplast, the GUS activity was detected at a low level. […] Even in the presence of these effector plasmids, the transcriptional activity of the GUS gene downstream of the mutant 12-bp GCN4 motif was the same level as that of background. […] The transcriptional activity of the reporter gene induced by the RISBZ1 gene product was slightly higher than that induced by the O2 gene product. […] 1 to 12 copies of 21-bp GCN motif were assayed, and the transcriptional activity was enhanced proportionately up to 9 copies. […]

The target in a further series is T2, Opaque2 (Zea mays, UniProt P12959 P12959:1-453).
T2 sequence: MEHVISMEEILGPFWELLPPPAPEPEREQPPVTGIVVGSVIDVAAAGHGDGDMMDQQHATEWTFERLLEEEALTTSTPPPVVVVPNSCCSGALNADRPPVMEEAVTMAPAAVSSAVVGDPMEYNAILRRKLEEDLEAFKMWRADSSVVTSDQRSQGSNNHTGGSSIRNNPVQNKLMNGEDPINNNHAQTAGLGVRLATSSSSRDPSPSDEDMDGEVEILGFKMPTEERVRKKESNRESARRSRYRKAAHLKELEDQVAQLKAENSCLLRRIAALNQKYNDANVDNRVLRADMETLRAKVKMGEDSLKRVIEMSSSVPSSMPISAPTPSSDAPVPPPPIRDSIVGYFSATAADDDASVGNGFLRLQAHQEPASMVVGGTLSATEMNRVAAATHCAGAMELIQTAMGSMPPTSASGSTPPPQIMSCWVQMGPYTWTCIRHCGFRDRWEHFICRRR
As to the kind of experiment: cell_activity; 1x21-bp reporter; 5x21-bp 114.7-fold.
Description: as §1

Series [1] deals with the molecule itself. Nature of the series: gel shift assay of the Examples.

This is an account of results in patent publication US20040072159A1, “Bzip type transcription factors regulating the expression of rice storage protein” (published 2004).

B1: 21-bp GCN4 reporter (dsDNA)
DNA 1: GTTTGTCATGGCTGAGTCATG
DNA 2: CATGACTCAGCCATGACAAAC
For B1, the values for the activity in the series with RISBZ1 and with Opaque2 were 43.9 fold and 37.9 fold, respectively.

B2: full-length RISBZ1 protein (other)
chain: T1 sequence
notes: Untagged full-length protein translated in vitro from pET8c (TNT coupled wheat germ extract); the crude extract was used in the gel shift assay; also called rice seed b-Zipper 1
As to B2, the binding result in series [1] was “binds”.
